Here are results for 7 molecules from patent US20230265151A1, “GIP/GLP1 CO-AGONIST COMPOUNDS” (priority 2020, published 2023).

Positions count from the first letter of the chain named.

Holding throughout (assay): cell-based or functional assay
The target of experiment [1] is human glucagon receptor (human) (UniProt P47871).
In experiment [2] the target is human glucagon-like peptide-1 (GLP-1) receptor (human) (UniProt P43220).
Experiment [3] deals with T1, human glucose-dependent insulinotropic polypeptide (GIP) receptor (human) (UniProt P48546).
T1 sequence (looked up): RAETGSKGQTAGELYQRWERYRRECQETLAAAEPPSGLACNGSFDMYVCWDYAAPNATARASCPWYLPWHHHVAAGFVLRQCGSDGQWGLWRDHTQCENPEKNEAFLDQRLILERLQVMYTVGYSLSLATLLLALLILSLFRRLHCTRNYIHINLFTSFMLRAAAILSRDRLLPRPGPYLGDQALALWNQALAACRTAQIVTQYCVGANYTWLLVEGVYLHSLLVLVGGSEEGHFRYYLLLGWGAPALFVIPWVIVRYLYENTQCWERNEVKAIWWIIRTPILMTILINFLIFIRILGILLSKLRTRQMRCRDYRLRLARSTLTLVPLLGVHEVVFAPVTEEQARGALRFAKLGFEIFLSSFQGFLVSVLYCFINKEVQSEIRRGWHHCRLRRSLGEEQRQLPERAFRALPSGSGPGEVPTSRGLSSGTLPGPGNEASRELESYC

For experiment [4], the target named is T2, human GIP receptor (human, UniProt P48546 22-466).
T2 sequence (looked up): T1 sequence (looked up)

Experiment [5] has as its target human GLP-1 receptor (human, UniProt P43220 24-463).
Experiment [6] deals with human glucagon receptor (human, UniProt P47871 26-477).

B1: Example 240 (peptide)
peptide: YXEGTXTSDYXIXLDXIAQXKFIXXLIKGGPSSGAPPPS
modifications: Y-Aib-EGT-αMeF(2F)-TSDY-Aib-I-αMeL-LD-Orn-IAQ-Aib-K((2-[2-(2-Amino-ethoxy)-ethoxy]-acetyl)2-(γ-Glu)-(10-(4-carboxyphenoxy)decanoyl))FI-(D-Glu)-αMeY-LIK((2-[2-(2-Amino-ethoxy)-ethoxy]-acetyl)2-(γ-Glu)-(10-(4-carboxyphenoxy)decanoyl))GGPSSGAPPPS-NH2
In the case of B1, the cAMP EC50 in experiment [1] was above 9950 nM; in experiment [2], 0.508 nM; in experiment [3], 0.0237 nM. The figures for the cAMP Emax in experiment [2] and in experiment [3] were 98.5% and 99.1%, respectively. The “cAMP EC50 (1.0% HSA)” value in experiment [4] was 11.7 nM; in experiment [5], 150 nM; in experiment [6] it was above 9950 nM. The “cAMP Emax (1.0% HSA)” value came to 87.2% in experiment [4] and 107% in experiment [5].

B2: Example 247 (peptide)
peptide: B1 peptide with Y10X
modifications: Y-Aib-EGT-αMeF(2F)-TSD-4Pal-Aib-I-αMeL-LD-Orn-IAQ-Aib-K((2-[2-(2-Amino-ethoxy)-ethoxy]-acetyl)2-(γ-Glu)-(10-(4-carboxyphenoxy)decanoyl))FI-(D-Glu)-αMeY-LIK((2-[2-(2-Amino-ethoxy)-ethoxy]-acetyl)2-(γ-Glu)-(10-(4-carboxyphenoxy)decanoyl))GGPSSGAPPPS-NH2
As to B2, the cAMP EC50 is above 9950 nM in experiment [1], 1 nM in experiment [2] and 0.022 nM in experiment [3]. For the same molecule, the cAMP Emax in experiment [2] was found to be 108%; in experiment [3], 103%. The “cAMP EC50 (1.0% HSA)” value in experiment [4] is 4.24 nM; in experiment [5], 77.7 nM; in experiment [6], above 9950 nM. In addition, the “cAMP Emax (1.0% HSA)” value came out at 90.2% in experiment [4] and 109% in experiment [5].

B3: Example 243 (peptide)
peptide: B1 peptide with Y10X, I17K, K28E
modifications: Y-Aib-EGT-αMeF(2F)-TSD-4Pal-Aib-I-αMeL-LD-Orn-K((2-[2-(2-Amino-ethoxy)-ethoxy]-acetyl)2-(γ-Glu)-(10-(4-carboxyphenoxy)decanoyl))AQ-Aib-K((2-[2-(2-Amino-ethoxy)-ethoxy]-acetyl)2-(γ-Glu)-(10-(4-carboxyphenoxy)decanoyl))FI-(D-Glu)-αMeY-LIEGGPSSGAPPPS-NH2
For the molecule B3, the cAMP EC50 in experiment [1] is above 9950 nM; in experiment [2], 0.86 nM; in experiment [3] it was 0.0154 nM. Besides, the values for the cAMP Emax in experiment [2] and in experiment [3] were 93.2% and 101%, respectively. For the same molecule, the “cAMP EC50 (1.0% HSA)” value is 0.728 nM in experiment [4], 34.7 nM in experiment [5] and above 9950 nM in experiment [6]. Moreover, the “cAMP Emax (1.0% HSA)” value in experiment [5] was determined as 114%.

B4: Example 238 (peptide)
peptide: YXEGTXTSDYXIXLDXKAQXEFIXXLIEGGPSSGAPPPSK
modifications: Y-Aib-EGT-αMeF(2F)-TSDY-Aib-I-αMeL-LD-Orn-K((2-[2-(2-Amino-ethoxy)-ethoxy]-acetyl)2-(γ-Glu)-(10-(4-carboxyphenoxy)decanoyl))AQ-Aib-EFI-(D-Glu)-αMeY-LIEGGPSSGAPPPSK((2-[2-(2-Amino-ethoxy)-ethoxy]-acetyl)2-(γ-Glu)-(10-(4-carboxyphenoxy)decanoyl))-NH2
For B4, the cAMP EC50 was above 9950 nM in experiment [1], 1.03 nM in experiment [2] and 0.0214 nM in experiment [3]. For the same molecule, the cAMP Emax came out at 107% in experiment [2] and 104% in experiment [3]. Moreover, the “cAMP EC50 (1.0% HSA)” value in experiment [4] is 1.31 nM; in experiment [5] it was 27.2 nM; in experiment [6], above 9950 nM. In experiment [5], the “cAMP Emax (1.0% HSA)” value is 103%.

B5: Example 245 (peptide)
peptide: B4 peptide with Y10X
modifications: Y-Aib-EGT-αMeF(2F)-TSD-4Pal-Aib-I-αMeL-LD-Orn-K((2-[2-(2-Amino-ethoxy)-ethoxy]-acetyl)2-(γ-Glu)-(10-(4-carboxyphenoxy)decanoyl))AQ-Aib-EFI-(D-Glu)-αMeY-LIEGGPSSGAPPPSK((2-[2-(2-Amino-ethoxy)-ethoxy]-acetyl)2-(γ-Glu)-(10-(4-carboxyphenoxy)decanoyl))-NH2
In the case of B5, the figures for the cAMP EC50 in experiment [1], in experiment [2] and in experiment [3] were above 9950 nM, 1.88 nM and 0.0195 nM, respectively. For the same molecule, the cAMP Emax in experiment [2] was 88.9%; in experiment [3] it was 96.7%. In addition, the figures for the “cAMP EC50 (1.0% HSA)” value in experiment [4], in experiment [5] and in experiment [6] were 0.552 nM, 27 nM and above 9950 nM, respectively. Moreover, the “cAMP Emax (1.0% HSA)” value in experiment [5] stood at 93.8%.

B6: Example 242 (peptide)
peptide: B4 peptide with Y10X, K17I, E21K
modifications: Y-Aib-EGT-αMeF(2F)-TSD-4Pal-Aib-I-αMeL-LD-Orn-IAQ-Aib-K(2-[2-(2-Amino-ethoxy)-ethoxy]-acetyl)2-(γ-Glu)-(11-(4-carboxyphenoxy)undecanoyl)FI-(D-Glu)-αMeY-LIEGGPSSGAPPPSK((2-[2-(2-Amino-ethoxy)-ethoxy]-acetyl)2-(γ-Glu)-(11-(4-carboxyphenoxy)undecanoyl)-NH2)
B6: the figures for the cAMP EC50 in experiment [1], in experiment [2] and in experiment [3] were above 9950 nM, 0.584 nM and 0.0197 nM, respectively. Besides, the cAMP Emax in experiment [2] is 96.3%; in experiment [3] it was 100%. Besides, the “cAMP EC50 (1.0% HSA)” value in experiment [4] is 11 nM; in experiment [5], 214 nM; in experiment [6], above 9950 nM. In addition, the results for the “cAMP Emax (1.0% HSA)” value in experiment [4] and in experiment [5] were 83.9% and 102%, respectively.

B7: Example 241 (peptide)
peptide: B4 peptide with K17I, E21K
modifications: Y-Aib-EGT-αMeF(2F)-TSDY-Aib-I-αMeL-LD-Orn-IAQ-Aib-K((2-[2-(2-Amino-ethoxy)-ethoxy]-acetyl)2-(γ-Glu)-(10-(4-carboxyphenoxy)decanoyl))FI-(D-Glu)-αMeY-LIEGGPSSGAPPPSK((2-[2-(2-Amino-ethoxy)-ethoxy]-acetyl)2-(γ-Glu)-(10-(4-carboxyphenoxy)decanoyl))-NH2
With B7, the cAMP EC50 was above 9950 nM in experiment [1], 0.362 nM in experiment [2] and 0.0213 nM in experiment [3]. Besides, the figures for the cAMP Emax in experiment [2] and in experiment [3] were 91% and 105%, respectively. For the same molecule, the “cAMP EC50 (1.0% HSA)” value in experiment [4] is 8.02 nM; in experiment [5], 103 nM; in experiment [6], above 9950 nM. Further, the results for the “cAMP Emax (1.0% HSA)” value in experiment [4] and in experiment [5] were 84.9% and 105%, respectively.
